This series deals with human colon cancer cell line LS174T. The note with it: mouse, in vivo.

This note sets out measurements from US20120034161A1, “PRETARGETING KIT, METHOD AND AGENTS USED THEREIN” (KONINKLIJKE PHILIPS ELECTRONICS N.V., priority 2009, published 2012).

For “Rtx-TCO: TCO-modified rituximab for control in vivo experiments; lacks specificity for TAG72”, the 125I-mAb in tumor is reported as 6.3±1.2 % ID/g.
